From patent publication US20090074779A1

Biological target: TrkC, Q16288
Test: SPR (BIAlite), receptor amine-coupled on CM4 chip, ligand injected, 25 C
Conditions: remark: other sources report otherwise

Sequence of TrkC, Q16288 (Q16288 32-429 limits assumed): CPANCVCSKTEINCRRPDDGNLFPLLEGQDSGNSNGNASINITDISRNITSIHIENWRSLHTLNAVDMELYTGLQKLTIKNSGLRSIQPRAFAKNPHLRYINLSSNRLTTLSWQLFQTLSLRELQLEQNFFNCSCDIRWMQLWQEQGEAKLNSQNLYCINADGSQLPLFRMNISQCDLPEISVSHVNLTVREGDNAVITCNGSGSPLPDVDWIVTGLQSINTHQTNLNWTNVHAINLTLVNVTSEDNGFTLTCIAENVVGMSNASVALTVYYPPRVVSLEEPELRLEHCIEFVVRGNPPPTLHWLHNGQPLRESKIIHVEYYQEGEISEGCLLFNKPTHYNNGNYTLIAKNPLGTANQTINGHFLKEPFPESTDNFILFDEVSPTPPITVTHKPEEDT

B1: BDNF, P23560 129-247 (ligand, UniProt P23560 129-247, looked up)
chain: HSDPARRGELSVCDSISEWVTAADKKTAVDMSGGTVTVLEKVPVSKGQLKQYFYETKCNPMGYTKEGCRGIDKRHWNSQCRTTQSYVRALTMDSKKRIGWRFIRIDTSCVCTLTIKRGR
Kd: 14 nM
